From patent US20230220589A1
Where a chain is given by its changes, count along the chain named.

What was measured:
[1] = target: M44-modified S NTAA target peptides; test: encoding assay; P2 T
[2] = target: M44-modified H NTAA target peptides; test: encoding assay; P2 T;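 further: fraction of recording tags encoded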
[3] = target: M44-modified W NTAA target peptides; test: encoding assay; P2 T;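 further: fraction of recording tags encoded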
[4] = target: M44-modified D NTAA target peptides; test: encoding assay; P2 T;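 further: fraction of recording tags encoded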
[5] = target: M44-modified S NTAA target peptides; test: encoding assay; P2 H
[6] = target: M44-modified G NTAA target peptides (M44-G-P2-peptide); test: encoding assay; P2 H;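 further: fraction of recording tags encoded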
[7] = target: M44-modified E NTAA target peptides; test: encoding assay; P2 H;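 further: fraction of recording tags encoded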
[8] = target: M44-modified G NTAA target peptides (M44-G-P2-peptide); test: encoding assay; P2 N;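 further: fraction of recording tags encoded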
[9] = target: M44-modified A NTAA target peptides (M44-A-P2-peptide); test: encoding assay; P2 N;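 further: fraction of recording tags encoded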
[10] = target: M44-modified T NTAA target peptides; test: encoding assay; P2 N;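 further: fraction of recording tags encoded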
[11] = target: M44-modified P NTAA target peptides; test: encoding assay; P2 N;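 further: fraction of recording tags encoded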
[12] = target: M17-modified P NTAA target peptides; test: encoding assay; P2 T;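 further: fraction of recording tags encoded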
[13] = target: M17-modified I NTAA target peptides; test: encoding assay; P2 T;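 further: fraction of recording tags encoded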
[14] = target: M17-modified M NTAA target peptides; test: encoding assay; P2 T;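 further: fraction of recording tags encoded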
[15] = target: M17-modified S NTAA target peptides; test: encoding assay; P2 T;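 further: fraction of recording tags encoded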
[16] = target: M17-modified Y NTAA target peptides (M17-Y-P2-peptide); test: encoding assay; P2 T;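 further: fraction of recording tags encoded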
[17] = target: M17-modified T NTAA target peptides; test: encoding assay; P2 T;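 further: fraction of recording tags encoded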
[18] = target: M17-modified Q NTAA target peptides; test: encoding assay; P2 T;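 further: fraction of recording tags encoded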
[19] = target: M17-modified H NTAA target peptides; test: encoding assay; P2 T;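 further: fraction of recording tags encoded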
[20] = target: M17-modified L NTAA target peptides; test: encoding assay; P2 T;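 further: fraction of recording tags encoded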
[21] = target: M17-modified V NTAA target peptides; test: encoding assay; P2 T;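 further: fraction of recording tags encoded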
[22] = target: M17-modified D NTAA target peptides; test: encoding assay; P2 T;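 further: fraction of recording tags encoded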
[23] = target: M17-modified A NTAA target peptides; test: encoding assay; P2 T;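 further: fraction of recording tags encoded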
[24] = target: M17-modified G NTAA target peptides; test: encoding assay; P2 T;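 further: fraction of recording tags encoded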
[25] = target: M17-modified F NTAA target peptides; test: encoding assay; P2 T;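 further: fraction of recording tags encoded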
[26] = target: M17-modified N NTAA target peptides; test: encoding assay; P2 T;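 further: fraction of recording tags encoded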
[27] = target: M17-modified E NTAA target peptides; test: encoding assay; P2 T;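 further: fraction of recording tags encoded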
[28] = target: M17-modified W NTAA target peptides; test: encoding assay; P2 T;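 further: fraction of recording tags encoded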
[29] = target: M17-modified P NTAA target peptides; test: encoding assay; P2 H;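 further: fraction of recording tags encoded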
[30] = target: M17-modified I NTAA target peptides; test: encoding assay; P2 H;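 further: fraction of recording tags encoded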
[31] = target: M17-modified M NTAA target peptides; test: encoding assay; P2 H;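 further: fraction of recording tags encoded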
[32] = target: M17-modified S NTAA target peptides; test: encoding assay; P2 H;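 further: fraction of recording tags encoded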
[33] = target: M17-modified Y NTAA target peptides (M17-Y-P2-peptide); test: encoding assay; P2 H;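 further: fraction of recording tags encoded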
[34] = target: M17-modified T NTAA target peptides; test: encoding assay; P2 H;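 further: fraction of recording tags encoded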
[35] = target: M17-modified Q NTAA target peptides; test: encoding assay; P2 H;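 further: fraction of recording tags encoded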
[36] = target: M17-modified H NTAA target peptides; test: encoding assay; P2 H;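 further: fraction of recording tags encoded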
[37] = target: M17-modified L NTAA target peptides; test: encoding assay; P2 H;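 further: fraction of recording tags encoded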
[38] = target: M17-modified V NTAA target peptides; test: encoding assay; P2 H;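 further: fraction of recording tags encoded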
[39] = target: M17-modified D NTAA target peptides; test: encoding assay; P2 H;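 further: fraction of recording tags encoded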
[40] = target: M17-modified A NTAA target peptides; test: encoding assay; P2 H;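 further: fraction of recording tags encoded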
[41] = target: M17-modified G NTAA target peptides; test: encoding assay; P2 H;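 further: fraction of recording tags encoded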
[42] = target: M17-modified F NTAA target peptides; test: encoding assay; P2 H;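 further: fraction of recording tags encoded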
[43] = target: M17-modified N NTAA target peptides; test: encoding assay; P2 H;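 further: fraction of recording tags encoded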
[44] = target: M17-modified E NTAA target peptides; test: encoding assay; P2 H;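 further: fraction of recording tags encoded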
[45] = target: M17-modified W NTAA target peptides; test: encoding assay; P2 H;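 further: fraction of recording tags encoded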
[46] = target: M17-modified I NTAA target peptides; test: encoding assay; P2 N;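 further: fraction of recording tags encoded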
[47] = target: M17-modified M NTAA target peptides; test: encoding assay; P2 N;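 further: fraction of recording tags encoded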
[48] = target: M17-modified S NTAA target peptides; test: encoding assay; P2 N;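 further: fraction of recording tags encoded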
[49] = target: M17-modified Y NTAA target peptides (M17-Y-P2-peptide); test: encoding assay; P2 N;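 further: fraction of recording tags encoded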
[50] = target: M17-modified Q NTAA target peptides; test: encoding assay; P2 N;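 further: fraction of recording tags encoded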
[51] = target: M17-modified L NTAA target peptides; test: encoding assay; P2 N;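 further: fraction of recording tags encoded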
[52] = target: M17-modified G NTAA target peptides; test: encoding assay; P2 N;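 further: fraction of recording tags encoded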
[53] = target: M17-modified F NTAA target peptides; test: encoding assay; P2 N;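 further: fraction of recording tags encoded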
[54] = target: M17-modified E NTAA target peptides; test: encoding assay; P2 N;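 further: fraction of recording tags encoded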

B1: engineered M44-L binder (SEQ ID NO: 31) (designed binder, not shown: small tags and cut ends; large carriers)
chain: QDSTQNLIPAPPLISVPLQPGFWTERFQGRWFLVGFAGNAVQKERQSRLTMQSLILELQEDNSYNITAINVRGQGCRYIISTLVPSSRPGQFTLGNIHSYPQIQSLDVQVADTDYDQFAMVFLQGTSENKQYFEVALAGRTKGLSDELKERFVSFAKSLGLKDNNIVFSVPTDQCIDN
[1]
  encoding yield: 0.01
[2]
  encoding yield: 0.02
[3]
  encoding yield: 0.01
[4]
  encoding yield: 0.01
[5]
  encoding yield: 0.01
[6]
  encoding yield: 0.01
[7]
  encoding yield: 0.02
[8]
  encoding yield: 0.02
[9]
  encoding yield: 0.02
[10]
  encoding yield: 0.01
[11]
  encoding yield: 0.01

B2: engineered M17-Y binder (SEQ ID NO: 61) (designed binder, not shown: small tags and cut ends; large carriers)
chain: TVPDRSEIAGKWYVVALASNTEFYLREKDWVKSAMARISFLGEDELKVSSAVPSPNGCYKVERTWKKTSDDGEVYNSRAAKLKVEVLDTDYKSYAVIYATRVKDGRTDHQMILYSRSPEVSPAATAIFRKLAGERNYTDEMVAMLPRQEECTVDEV
[12]
  encoding yield: 0.01
[13]
  encoding yield: 0.06
[14]
  encoding yield: 0.01
[15]
  encoding yield: 0.01
[16]
  encoding yield: 0.14
[17]
  encoding yield: 0.02
[18]
  encoding yield: 0.03
[19]
  encoding yield: 0.01
[20]
  encoding yield: 0.04
[21]
  encoding yield: 0.03
[22]
  encoding yield: 0.01
[23]
  encoding yield: 0.03
[24]
  encoding yield: 0.04
[25]
  encoding yield: 0.06
[26]
  encoding yield: 0.02
[27]
  encoding yield: 0.01
[28]
  encoding yield: 0.01
[29]
  encoding yield: 0.03
[30]
  encoding yield: 0.03
[31]
  encoding yield: 0.02
[32]
  encoding yield: 0.01
[33]
  encoding yield: 0.07
[34]
  encoding yield: 0.02
[35]
  encoding yield: 0.02
[36]
  encoding yield: 0.03
[37]
  encoding yield: 0.02
[38]
  encoding yield: 0.03
[39]
  encoding yield: 0.02
[40]
  encoding yield: 0.02
[41]
  encoding yield: 0.01
[42]
  encoding yield: 0.02
[43]
  encoding yield: 0.03
[44]
  encoding yield: 0.01
[45]
  encoding yield: 0.02
[46]
  encoding yield: 0.02
[47]
  encoding yield: 0.01
[48]
  encoding yield: 0.02
[49]
  encoding yield: 0.06
[50]
  encoding yield: 0.02
[51]
  encoding yield: 0.02
[52]
  encoding yield: 0.03
[53]
  encoding yield: 0.02
[54]
  encoding yield: 0.02

B3: upgraded binder after additional maturation round (SEQ ID NO: 62) (designed binder, not shown: small tags and cut ends; large carriers)
chain: B2 chain with E27G, W30R, A36V, L41Q, G105R, E119D
[12]
  encoding yield: 0.01
[13]
  encoding yield: 0.1
[14]
  encoding yield: 0.02
[15]
  encoding yield: 0.01
[16]
  encoding yield: 0.24
[17]
  encoding yield: 0.04
[18]
  encoding yield: 0.02
[19]
  encoding yield: 0.02
[20]
  encoding yield: 0.08
[21]
  encoding yield: 0.05
[22]
  encoding yield: 0.02
[23]
  encoding yield: 0.02
[24]
  encoding yield: 0.05
[25]
  encoding yield: 0.08
[26]
  encoding yield: 0.02
[27]
  encoding yield: 0.02
[28]
  encoding yield: 0.02
[29]
  encoding yield: 0.04
[30]
  encoding yield: 0.03
[31]
  encoding yield: 0.03
[32]
  encoding yield: 0.02
[33]
  encoding yield: 0.07
[34]
  encoding yield: 0.03
[35]
  encoding yield: 0.03
[36]
  encoding yield: 0.02
[37]
  encoding yield: 0.02
[38]
  encoding yield: 0.02
[39]
  encoding yield: 0.03
[40]
  encoding yield: 0.03
[41]
  encoding yield: 0.02
[42]
  encoding yield: 0.02
[43]
  encoding yield: 0.03
[44]
  encoding yield: 0.02
[45]
  encoding yield: 0.03
[46]
  encoding yield: 0.03
[47]
  encoding yield: 0.02
[48]
  encoding yield: 0.02
[49]
  encoding yield: 0.15
[50]
  encoding yield: 0.02
[51]
  encoding yield: 0.03
[52]
  encoding yield: 0.03
[53]
  encoding yield: 0.01
[54]
  encoding yield: 0.03

B4: engineered M44-A binder (SEQ ID NO: 42) (designed binder, not shown: small tags and cut ends; large carriers)
chain: QVSVQPNFQQDKFLGRWFVAGLASNSSWDREKVAALSGAKMVVAPATDGGLNVTRTMLRKNQCETYTGLLQPAGSLGSYSWRSPHPGSTGSESVVETDYDQYALVYGQGSKGPGEDLRAAALWSRTQTPRAELKEKFTAFSKAQGFTEDTIVFLPQTDKCMTEQ
[1]
  encoding yield: 0.01
[2]
  encoding yield: 0.01
[3]
  encoding yield: 0.01
[4]
  encoding yield: 0.02
[5]
  encoding yield: 0.01
[6]
  encoding yield: 0.01
[7]
  encoding yield: 0.03
[8]
  encoding yield: 0.03
[9]
  encoding yield: 0.1
[10]
  encoding yield: 0.02
[11]
  encoding yield: 0.02
